Biological target: modifying region of human fatty acid synthase (hFASN) isolated by TEV cleavage of the engineered full-length protein (human) (UniProt P49327)
Test: cryo-EM structure; hFASN modifying region after TEV cleavage, 0.8 mg/mL, 1 mM NADPH, 1 mM DTT; also with 13.75 µM Denifanstat; plunge-frozen on holey gold grids, Titan Krios

Chain of modifying region of human fatty acid synthase (hFASN) isolated by TEV cleavage of the engineered full-length protein (P49327 855-2511, change not shown): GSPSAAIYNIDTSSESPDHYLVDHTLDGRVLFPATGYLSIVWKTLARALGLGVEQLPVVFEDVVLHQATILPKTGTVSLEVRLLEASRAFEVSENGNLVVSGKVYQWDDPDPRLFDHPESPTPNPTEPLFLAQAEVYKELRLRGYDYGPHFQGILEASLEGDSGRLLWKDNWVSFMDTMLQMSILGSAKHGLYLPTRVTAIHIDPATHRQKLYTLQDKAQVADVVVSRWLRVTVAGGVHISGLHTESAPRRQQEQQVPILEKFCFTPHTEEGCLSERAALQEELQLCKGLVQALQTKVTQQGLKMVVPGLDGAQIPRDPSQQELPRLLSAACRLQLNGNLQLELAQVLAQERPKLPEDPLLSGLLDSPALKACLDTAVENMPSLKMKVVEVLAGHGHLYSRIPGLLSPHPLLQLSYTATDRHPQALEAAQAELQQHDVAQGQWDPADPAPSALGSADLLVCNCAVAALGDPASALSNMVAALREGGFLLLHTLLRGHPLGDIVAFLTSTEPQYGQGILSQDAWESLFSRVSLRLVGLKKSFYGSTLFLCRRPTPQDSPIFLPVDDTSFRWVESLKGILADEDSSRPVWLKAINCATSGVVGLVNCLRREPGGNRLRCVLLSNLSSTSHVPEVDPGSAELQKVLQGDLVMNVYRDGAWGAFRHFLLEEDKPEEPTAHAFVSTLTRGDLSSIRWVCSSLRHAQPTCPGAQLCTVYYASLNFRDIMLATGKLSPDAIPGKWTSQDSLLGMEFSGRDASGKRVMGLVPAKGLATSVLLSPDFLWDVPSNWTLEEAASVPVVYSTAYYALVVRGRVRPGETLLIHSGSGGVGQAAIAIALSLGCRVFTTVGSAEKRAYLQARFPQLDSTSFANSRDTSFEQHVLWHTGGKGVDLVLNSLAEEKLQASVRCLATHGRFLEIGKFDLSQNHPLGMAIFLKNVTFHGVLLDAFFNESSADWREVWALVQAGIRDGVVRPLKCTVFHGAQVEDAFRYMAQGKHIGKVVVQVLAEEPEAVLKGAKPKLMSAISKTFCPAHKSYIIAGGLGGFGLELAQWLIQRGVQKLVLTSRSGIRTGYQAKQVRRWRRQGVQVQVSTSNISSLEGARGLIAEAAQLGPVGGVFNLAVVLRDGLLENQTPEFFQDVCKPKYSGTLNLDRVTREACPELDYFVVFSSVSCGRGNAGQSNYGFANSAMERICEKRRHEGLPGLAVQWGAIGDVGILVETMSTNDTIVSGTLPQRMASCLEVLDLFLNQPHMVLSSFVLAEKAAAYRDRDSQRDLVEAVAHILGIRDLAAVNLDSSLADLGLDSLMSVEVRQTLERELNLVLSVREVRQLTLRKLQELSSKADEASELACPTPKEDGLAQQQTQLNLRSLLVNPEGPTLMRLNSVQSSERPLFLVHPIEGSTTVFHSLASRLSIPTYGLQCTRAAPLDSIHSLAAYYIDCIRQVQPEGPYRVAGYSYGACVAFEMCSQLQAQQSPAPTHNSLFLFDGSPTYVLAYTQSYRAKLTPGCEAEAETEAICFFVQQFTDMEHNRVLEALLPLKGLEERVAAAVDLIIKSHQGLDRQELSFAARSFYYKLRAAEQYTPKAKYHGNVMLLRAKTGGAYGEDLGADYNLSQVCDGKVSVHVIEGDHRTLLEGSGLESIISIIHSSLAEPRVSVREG

Substance: modifying region of human fatty acid synthase (hFASN) isolated by TEV cleavage of the engineered full-length protein (from UniProt P49327 855-2511) (domain or fragment)
- stoichiometry N: 2
